What was measured:
[1] = target: HIV-1 isolate 77 envelope (HIV-1); assay: cell-based or functional assay
NL4.3 env = NL4.3 env (HIV-1 groupM); assay: cell-based or functional assay
gp120SF162 [2] = target: T1, gp120SF162 (HIV-1, UniProt P19550 32-502); assay: fluorescence polarization competition: 6 nM gp120SF162, 1 nM fluorescein-CD4M33
T1 construct: domain: gp120
Text: (§1) Binding assays by fluorescence anisotropy were made in a LJL Analyst (LJL BIOSYSTEMS) microplate reader using 384-wells plates.

gp120 SF2 [3] = target: T2, gp120 SF2 (HIV-1, UniProt P03378 32-509); assay: fluorescence anisotropy, 0.5 nM CD4M47-F titrated with gp120
T2 construct: domain: gp120

gp120SF162 [4] = target: T1, gp120SF162; assay: as above
gp120 Bal [5] = target: T3, gp120 Bal (HIV-1); assay: as above
T3 construct: domain: gp120

gp120 IIIB [6] = target: T4, gp120 IIIB (HIV-1); assay: as above
T4 construct: domain: gp120

gp120YU2 = target: T5, gp120YU2 (HIV-1, UniProt P35961 32-498); assay: as above
T5 construct: domain: gp120

gp120 Bal [7] = target: T3, gp120 Bal; assay: fluorescence anisotropy, ratio of the Kd values of Table I (lower end falls on Bal)
gp120SF162 [8] = target: T1, gp120SF162; assay: fluorescence anisotropy, ratio of the Kd values of Table I (upper end falls on SF162)
gp120 Bal [9] = target: T3, gp120 Bal; assay: fluorescence anisotropy, Alexa-488-labelled mini-protein (0.5 nM) titrated with gp120 in solution
Experimental: as §1
(§2) Direct binding assays of fluorescent peptides were performed in triplicates by adding 10 μL of 0.5 nM Alexa-labeled mini-proteins and 10 μL of serial dilutions (two-thirds dilutions in 16 wells, starting at 200 nM) of gp120 SF2, SF162, BaL, IIIB and YU2. Collected data were fitted to the following equation using a non-linear regression program (Prism, GraphPad software Inc.):

gp120 IIIB [10] = target: T4, gp120 IIIB; assay: as above
Experimental: as §1, §2

BaL virus envelope [11] = target: BaL virus envelope (HIV-1 groupM); assay: cell-based or functional assay
[12] = target: SF162 pseudovirus envelope (HIV-1, UniProt P19550 32-847); assay: cell-based or functional assay
[13] = target: VI829 pseudovirus envelope (HIV-1); assay: cell-based or functional assay
[14] = target: VI1358 pseudovirus envelope (HIV-1); assay: cell-based or functional assay
MJ4 pseudovirus envelope = MJ4 pseudovirus envelope (HIV-1); assay: cell-based or functional assay
[15] = target: CA10-3 pseudovirus envelope (HIV-1); assay: cell-based or functional assay
Mn pseudovirus envelope = Mn pseudovirus envelope (HIV-1, UniProt P05877 32-856); assay: cell-based or functional assay
gp120SF162 [16] = target: T1, gp120SF162; assay: competitive ELISA, IC50 values of Table III (largest ratio falls on gp120SF162)
Experimental: Competition binding assays in ELISA were performed in 96-wells plates (MAXISORB). Briefly, 50 ng per well of antibody D7324 (AALTO BIO REAGENTS) were coated overnight at 4° C.

BaL virus envelope [17] = target: BaL virus envelope (HIV-1 groupM); assay: cell-based or functional assay; remark: listed apart in the source
gp120 SF2 [18] = target: T2, gp120 SF2; assay: fluorescence anisotropy, ratio of the Kd values of Table I (lower end falls on SF2)
[19] = target: HIV-1 isolate 6393 envelope (HIV-1); assay: cell-based or functional assay
[20] = target: HIV-1 isolate 714 envelope (HIV-1); assay: cell-based or functional assay

B1: CD4M48D100 (peptide)
peptide: XNLHFCQLRCKSLGLLGRCAXTFCACV
modifications: not fully specified; N-terminal thiopropionic acid (TPA) at position 1; (D)Pro at 21; C-terminal amide; Lys11 carries a mercapto group ligated to a maleimido group of a polylysine construct with 100 Å PEGylated linkers
notes: dimer of CD4M48-SH on a polylysine construct
B1 was tested, and the “IC50, acute HIV-1 infection of PM1 cells (p24, day 5)” value (“IC50, acute HIV-1 infection” for short) [1] was 3 nM, the “IC50, HIV-1 infection of PBMC (p24, day 12)” value (“IC50, HIV-1 infection of PBMC” for short) (NL4.3 env) was < 1.8 nM and the “IC50 (read off the curve)” value (gp120SF162 [2]) was ~2 nM.

B2: Alexa labeled mini-protein CD4M47 (peptide)
peptide: XNLHFCQLRCKSLGLLGRCAXTXCACV
modifications: not fully specified; N-terminal thiopropionic acid (TPA) at position 1; (D)Pro at 21; biphenylalanine (Bip) at 23; C-terminal amide; Alexa-488 on Lys11
notes: also called CD4M47-F; CD4M47-F1
B2 was tested, and the “EC50 (read off the curve)” value (gp120 SF2 [3]) was ~0.3 nM, the “EC50 (read off the curve)” value (gp120SF162 [4]) was ~0.3 nM and the “EC50 (read off the curve)” value (gp120 Bal [5]) was ~1 nM. For the same binder, the “EC50 (read off the curve)” value (gp120 IIIB [6]) was ~0.9 nM, the “EC50 (read off the curve)” value (gp120YU2) was ~3 nM and the “fold improvement of affinity over CD4M33” value (gp120 Bal [7]) was 5.2 to 12.3 fold. The “fold improvement of affinity over CD4M33” value (gp120SF162 [8]) was 5.2 to 12.3 fold, the Kd (gp120 Bal [9]) was 1.22 nM and the Kd (gp120 IIIB [10]) was 0.589 nM.

B3: CD4M48T100 (peptide)
peptide: XNLHFCQLRCKSLGLLGRCAXTFCACV
modifications: not fully specified; N-terminal thiopropionic acid (TPA) at position 1; (D)Pro at 21; C-terminal amide; Lys11 carries a mercapto group ligated to a maleimido group of a polylysine construct with 100 Å PEGylated linkers
notes: tetramer of CD4M48-SH on a polylysine construct
B3 was tested, and the “IC50, acute HIV-1 infection” value [1] was < 4 nM, the “IC50, HIV-1 infection of PBMC” value (NL4.3 env) was 1.3 nM and the “IC50 (read off the curve)” value (gp120SF162 [2]) was ~2 nM.

B4: CD4M48_U2 (peptide)
peptide: XNLHFCQLRCKSLGLLGRCAXTXCACV
modifications: not fully specified; N-terminal thiopropionic acid (TPA) at position 1; (D)Pro at 21; para-cyclo-pentylethoxyphenylalanine (U2) at 23; C-terminal amide
In the case of B4, the “EC50, single-cycle HIV-1 pseudovirus infection of GHOST cells (luciferase)” value (shortened to “EC50 … (luciferase)”) (BaL virus envelope [11]) is reported as 4 nM, the “EC50 … (luciferase)” value [12] is reported as 1.6 nM and the “EC50 … (luciferase)” value [13] is reported as 98 nM. The “EC50 … (luciferase)” value [14] was 42 nM, the “EC50 … (luciferase)” value (MJ4 pseudovirus envelope) was 773 nM and the “EC50 … (luciferase)” value [15] was 3.6 nM. For the same binder, the “EC50 … (luciferase)” value (Mn pseudovirus envelope) was 0.08 nM and the “fold enhanced affinity compared to CD4M47” value (gp120SF162 [16]) was ≤ 3 fold.

B5: CD4M48-heparin (peptide)
peptide: XNLHFCQLRCKSLGLLGRCAXTFCACV
modifications: not fully specified; N-terminal thiopropionic acid (TPA) at position 1; (D)Pro at 21; C-terminal amide; Lys11 carries a hydrazino group ligated to heparin mono-aldehyde
B5 was tested, and the “IC50, acute HIV-1 infection” value (BaL virus envelope [17]) was 850 nM, the “IC50, acute HIV-1 infection” value [1] was < 4 nM and the “IC50, HIV-1 infection of MT-4 cells (MTS viability, day 5)” value (NL4.3 env) was 112 nM. The “IC50, HIV-1 infection of PBMC” value (NL4.3 env) was < 80 nM.

B6: CD4M48T50 (peptide)
peptide: XNLHFCQLRCKSLGLLGRCAXTFCACV
modifications: not fully specified; N-terminal thiopropionic acid (TPA) at position 1; (D)Pro at 21; C-terminal amide; Lys11 carries a mercapto group ligated to a maleimido group of a polylysine construct with 50 Å PEGylated linkers
notes: as for B3
B6 was tested, and the “IC50 (read off the curve)” value (gp120SF162 [2]) was ~1 nM.

B7: Alexa labeled mini-protein CD4M48 (peptide)
peptide: XNLHFCQLRCKSLGLLGRCAXTFCACV
modifications: not fully specified; N-terminal thiopropionic acid (TPA) at position 1; (D)Pro at 21; C-terminal amide; Alexa-488 on Lys11
notes: also called CD4M48-F1; Alexa 488-labeled CD4M48
B7 was tested, and the “factor by which the Kd is smaller than that of CD4M33” value (gp120 SF2 [18]) was 1.1 fold, the “factor by which the Kd is smaller than that of CD4M33” value (gp120SF162 [8]) was 6.1 fold and the Kd (gp120 Bal [9]) was 5.46 nM. The Kd (gp120 IIIB [10]) was 0.982 nM.

B8: CD4M48_U1 (peptide)
peptide: XNLHFCQLRCKSLGLLGRCAXTXCACV
modifications: not fully specified; N-terminal thiopropionic acid (TPA) at position 1; (D)Pro at 21; para-cyclo-hexylmethoxyphenylalanine (U1) at 23; C-terminal amide
In the case of B8, the “EC50 … (luciferase)” value (BaL virus envelope [11]) is reported as 2 nM, the “EC50 … (luciferase)” value [12] is reported as 0.65 nM and the “EC50 … (luciferase)” value [13] is reported as 11 nM. For the same binder, the “EC50 … (luciferase)” value [14] was 5 nM, the “EC50 … (luciferase)” value (MJ4 pseudovirus envelope) was 87 nM and the “EC50 … (luciferase)” value [15] was 0.3 nM. For the same binder, the “EC50 … (luciferase)” value (Mn pseudovirus envelope) was 0.07 nM.

B9: CD4M48_U3 (peptide)
peptide: XNLHFCQLRCKSLGLLGRCAXTXCACV
modifications: not fully specified; N-terminal thiopropionic acid (TPA) at position 1; (D)Pro at 21; Phe(para-[phenyl-ethoxy]) (U3) at 23; C-terminal amide
For B9, the “EC50 … (luciferase)” value (BaL virus envelope [11]) was 67 nM, the “EC50 … (luciferase)” value [12] was 2 nM and the “EC50 … (luciferase)” value [13] was 950 nM. The “EC50 … (luciferase)” value [14] was 364 nM, the “EC50 … (luciferase)” value (MJ4 pseudovirus envelope) was > 3270 nM and the “EC50 … (luciferase)” value [15] was 29 nM. The “EC50 … (luciferase)” value (Mn pseudovirus envelope) was 0.13 nM.

B10: CD4M47 (peptide)
peptide: XNLHFCQLRCKSLGLLGRCAXTXCACV
modifications: not fully specified; N-terminal thiopropionic acid (TPA) at position 1; (D)Pro at 21; biphenylalanine (Bip) at 23; C-terminal amide
In the case of B10, the “EC50 … (luciferase)” value (BaL virus envelope [11]) is reported as 108 nM, the “EC50 … (luciferase)” value [12] is reported as 22 nM and the “EC50 … (luciferase)” value [13] is reported as 1200 nM. The “EC50 … (luciferase)” value [14] was 579 nM, the “EC50 … (luciferase)” value (MJ4 pseudovirus envelope) was > 3410 nM and the “EC50 … (luciferase)” value [15] was 91 nM. For the same binder, the “EC50 … (luciferase)” value (Mn pseudovirus envelope) was 1 nM.

B11: CD4M48D50 (peptide)
peptide: XNLHFCQLRCKSLGLLGRCAXTFCACV
modifications: not fully specified; N-terminal thiopropionic acid (TPA) at position 1; (D)Pro at 21; C-terminal amide; Lys11 carries a mercapto group ligated to a maleimido group of a polylysine construct with 50 Å PEGylated linkers
notes: as for B1
In the case of B11, the “IC50 (read off the curve)” value (gp120SF162 [2]) is reported as ~1 nM.

B12: Alexa labeled mini-protein CD4M33 (peptide)
peptide: XNLHFCQLRCKSLGLLGKCAGSXCACV
modifications: not fully specified; biphenylalanine (Bip) at 23; Alexa-488 on Lys11
B12 gave a Kd (gp120 Bal [9]) of 6.36 nM and a Kd (gp120 IIIB [10]) of 3.81 nM.

B13: CD4M48 (peptide)
peptide: XNLHFCQLRCKSLGLLGRCAXTFCACV
modifications: not fully specified; N-terminal thiopropionic acid (TPA) at position 1; (D)Pro at 21; C-terminal amide
notes: optimized mini-protein, Phe at 23; unlabelled monomer; also called B4T
B13 was tested, and the “EC50 … (luciferase)” value (BaL virus envelope [11]) was 77 nM, the “EC50 … (luciferase)” value [12] was 5 nM and the “EC50 … (luciferase)” value [13] was 755 nM. For the same binder, the “EC50 … (luciferase)” value [14] was 57 nM, the “EC50 … (luciferase)” value (MJ4 pseudovirus envelope) was > 3300 nM and the “EC50 … (luciferase)” value [15] was 63 nM. For the same binder, the “EC50 … (luciferase)” value (Mn pseudovirus envelope) was 4 nM, the “IC50, acute HIV-1 infection” value (BaL virus envelope [17]) was 185 nM and the “IC50, acute HIV-1 infection” value [1] was 250 nM. For the same binder, the “IC50, acute HIV-1 infection” value [19] was 95 nM, the “IC50, acute HIV-1 infection” value [20] was 670 nM and the “IC50, HIV-1 infection of MT-4 cells (MTS viability, day 5)” value (NL4.3 env) was 2.6 nM. For the same binder, the “IC50, HIV-1 infection of PBMC” value (NL4.3 env) was 0.44 nM and the “IC50 (read off the curve)” value (gp120SF162 [2]) was ~3 nM.

Source: patent publication US20090285798A1 (COMMISSARIAT A L ENERGIE ATOMIQUE, published 2009)
